Values belong to the binder of their own block, whether it stands above or below them.
Columns and labels:
S. pombe Prp19-Myc13 = target: T1, S. pombe Prp19-Myc13 (S. pombe, UniProt O14011 1-488); experiment: co-IP; anti-HA immunoprecipitate from S. pombe cwf7-HA3 prp19-Myc13 prp17-Myc13 cells; anti-Myc immunoblot quantified on an Odyssey instrument; settings: partners not purified
T1 construct: Prp19 (Cwf8), S. pombe, open reading frame tagged at the 3' end of the endogenous locus; also called SpPrp19; Cwf8; source: S. pombe, tagged at the endogenous locus, in lysate; not shown: Myc13, C-terminal, kept
T1 sequence (looked up): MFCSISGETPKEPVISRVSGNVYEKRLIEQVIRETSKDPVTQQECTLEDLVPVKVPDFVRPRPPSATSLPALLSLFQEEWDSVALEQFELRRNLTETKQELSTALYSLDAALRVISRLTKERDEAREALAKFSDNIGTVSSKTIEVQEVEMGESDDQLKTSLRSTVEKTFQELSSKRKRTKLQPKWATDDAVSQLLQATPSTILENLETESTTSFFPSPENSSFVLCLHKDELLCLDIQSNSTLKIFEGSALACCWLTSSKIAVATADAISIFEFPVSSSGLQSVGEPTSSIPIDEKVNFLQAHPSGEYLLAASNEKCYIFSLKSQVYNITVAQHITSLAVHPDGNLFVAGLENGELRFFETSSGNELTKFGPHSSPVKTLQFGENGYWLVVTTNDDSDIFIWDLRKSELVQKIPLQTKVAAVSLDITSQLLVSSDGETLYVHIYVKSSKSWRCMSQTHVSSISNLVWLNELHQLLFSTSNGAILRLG

[1] = target: T2, full length S. cerevisiae Prp19 (S. cerevisiae, UniProt P32523 1-503); experiment: AUC; sedimentation velocity, 30,000 rpm, 22°C, 280 nm; Sedfit c(s) analysis; ScPrp19 constant with His6-ScUrn1 at 1∶1 or 1∶2.5 molar ratio; settings: both partners purified
T2 construct: Prp19, S. cerevisiae, full length (mass 58.6 kDa); no tag is printed for Prp19 in this experiment; also called ScPrp19; source: E. coli BL21 (pETDuet-1), co-expressed with His6-ScUrn1, purified (Ni-NTA agarose, heparin agarose, gel filtration)
T2 sequence (looked up): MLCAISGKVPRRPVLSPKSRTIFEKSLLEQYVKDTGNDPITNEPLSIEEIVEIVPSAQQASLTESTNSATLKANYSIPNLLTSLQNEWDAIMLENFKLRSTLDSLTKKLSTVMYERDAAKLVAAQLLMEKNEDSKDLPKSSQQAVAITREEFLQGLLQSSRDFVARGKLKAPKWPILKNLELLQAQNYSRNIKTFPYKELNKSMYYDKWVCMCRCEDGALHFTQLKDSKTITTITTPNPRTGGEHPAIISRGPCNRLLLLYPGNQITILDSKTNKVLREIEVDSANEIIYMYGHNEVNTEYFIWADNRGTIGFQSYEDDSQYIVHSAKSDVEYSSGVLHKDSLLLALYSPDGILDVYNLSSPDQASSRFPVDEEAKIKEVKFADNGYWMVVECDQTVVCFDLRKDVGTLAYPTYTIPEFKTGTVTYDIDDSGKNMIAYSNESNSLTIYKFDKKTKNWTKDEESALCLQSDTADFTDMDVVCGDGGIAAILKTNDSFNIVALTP

His6-ScPrp19(144–503) = target: T3, His6-ScPrp19(144–503) (S. cerevisiae, UniProt P32523 144-503); experiment: pull-down; purified soluble MBP fusions incubated one hour at 4°C with Ni-NTA beads coated with His6-ScPrp19(144–503); washed; SDS-PAGE and Coomassie staining; settings: both partners purified
T3 construct: Prp19, S. cerevisiae, amino acids 144–503; also called His6-Prp19(144–503); ScPrp19 WD40 domain; source: E. coli BL21 (pET15b), purified (Ni-NTA agarose)
T3 sequence (looked up): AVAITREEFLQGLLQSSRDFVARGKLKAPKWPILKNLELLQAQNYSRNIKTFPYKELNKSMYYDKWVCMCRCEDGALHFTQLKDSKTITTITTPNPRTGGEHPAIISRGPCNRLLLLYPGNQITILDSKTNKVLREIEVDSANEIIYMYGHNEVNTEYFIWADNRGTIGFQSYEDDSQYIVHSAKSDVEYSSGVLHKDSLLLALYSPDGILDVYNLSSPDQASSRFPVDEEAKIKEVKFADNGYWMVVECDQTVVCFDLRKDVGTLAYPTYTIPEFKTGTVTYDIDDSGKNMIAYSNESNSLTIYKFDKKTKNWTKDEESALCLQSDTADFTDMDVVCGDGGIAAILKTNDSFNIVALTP

[2] = target: T4, full length S. cerevisiae Prp19 (S. cerevisiae), P32523; experiment: AUC; sedimentation velocity, 30,000 rpm, 22°C, 280 nm; Sedfit c(s) analysis; ScPrp19 constant with His6-ScUrn1 at 1∶1 or 1∶2.5 molar ratio; settings: remark: other sources report otherwise
T4 chain: T2 sequence (looked up)

B1: S. pombe Prp17-Myc13 (natural protein, UniProt O43071 1-558, looked up)
chain: MLVANYSSDSEEQENSQSPNIQPLLHTENLAPAVVDNVKDDLIVSKGGNSRELARNVPVNEMVQPALGPANPFVTKEQDSIKNSITGYAEREYVPNFVFNQEYYANTHAIYGKRNFDDNEATTSTDLKRKSQKIKERREDPGDPSILEGDGAYKGPWAGYGSEQSSSPLEYSEYEEVESLDVKSEKDTESNNLGQNELLKEQLATPEVETHRSKEETILHKDRLFDYQNRSYMHVPNDVGINLSEEPGEQTCYIPKKHIFTWKGHTKGISCLRFFPISGHLLLSGSMDNQIKIWEVYHDRSLLRTFQGHARPIRDLSFSQDGRSFLSTSFDKTIKLWDTELGKCLNCFNSDRLTNCVKFQVDPDKPNEFLAGTADKRILQFDIRSPDIVQAYDHHLGGINSITFLENGKRFVTTSDDSSMRFWEYGTPVPIKFVADIAMHSMPRVALRPNGKSIACQSLDNCIYVYSAYEKYRQNKKKVFKGYSCSGYSLEVGFSPDGRFVFSGDSSGNACFWDWKTCKLMAKLPAHSGPVQSMAFHPQETSKVATSSIVDGSIKYWD
notes: Prp17, S. pombe, open reading frame tagged at the 3' end of the endogenous locus; also called SpPrp17; source: S. pombe, tagged at the endogenous locus, in lysate; not shown: Myc13, C-terminal, kept
- stoichiometry N (S. pombe Prp19-Myc13): 1.05 ratio of Myc-tagged proteins

B2: His6-ScUrn1 (natural protein, S. cerevisiae, UniProt Q06525 1-465, looked up)
chain: MRGEWQEFKTPAGKKYYYNKNTKQSRWEKPNLKKGSNLESNAKESQTERKPTFSLELVNGWHLIIYNDGTKLYFNDDSKEFKNDISQEDDSRCRSLIESLDKEKLVLLIGVARGYTMREEDIDKILESCNEEIHLFKRNQDEVERKDEISEEAGDVKSPLQESHTGLVSGYGSSSGEEDEEEDEEEDEENEEQIVNQDISIIDDLNRIDTDDIDERNIFFELFDRYKLDKFSTWSLQSKKIENDPDFYKIRDDTVRESLFEEWCGERSGNATAEESDSEDNSEDDSEVLEPTKYHYLAQIVANAGTIAPDTIPQDIRKQQKALYKAYKIKEYIPSKRDQDKFVSQLLFYYKTFDLEQRKEIFCDCLRDHERDFTGAVESLRQDKELIDRWQTLLKAPADSSSIEDILLSIEHRCCVSPIVVTEPRYYVVGILEKTVVWVRWLAAEVGPSSRFTPVGAGNEPINPE
notes: Urn1, S. cerevisiae (His6-ScUrn1 mass 55.1 kDa); the printed mass fits the whole protein; also called His6-Urn1; source: E. coli BL21 (pETDuet-1), co-expressed with ScPrp19, purified (Ni-NTA agarose, heparin agarose, gel filtration)
- stoichiometry N [1]: 1 Urn1 per Prp19 tetramer

B3: MBP-ScUrn1(165–274) (domain or fragment, S. cerevisiae, UniProt Q06525 165-274, looked up)
chain: TGLVSGYGSSSGEEDEEEDEEEDEENEEQIVNQDISIIDDLNRIDTDDIDERNIFFELFDRYKLDKFSTWSLQSKKIENDPDFYKIRDDTVRESLFEEWCGERSGNATAE
notes: source: E. coli BL21 (pMAL-c2X), purified (amylose beads)
- binding result (His6-ScPrp19(144–503)): binds

Second part, the binder after the results:

- stoichiometry N [2]: 4
B4: full length S. cerevisiae Prp19, P32523 1-503 (natural protein)
chain: T2 sequence (looked up)

- binding result (His6-ScPrp19(144–503)): binds
B5: MBP-ScPrp17(1–140) (domain or fragment, S. cerevisiae, UniProt P40968 1-140, looked up)
chain: MGLVDGYDTSSDSDLNFDEGKSVHEKKNGNLHEDTSYEPSSNNIHKRKSHFTKSELKRRRKTRKGDGPWGSWSSSDDETSQASETQKEDQDIFVHALAEDNLDSEQIEVEEVSHFYGKSEKDYQGRGYLYPPNDVDVDLR
notes: Prp17/Cdc40, S. cerevisiae, residues 1–140; source: E. coli BL21 (pMAL-c2X), purified (amylose beads)

Source: article PMC3046128, “Systematic Two-Hybrid and Comparative Proteomic Analyses Reveal Novel Yeast Pre-mRNA Splicing Factors Connected to Prp19” (PLoS ONE, 2011)
